Target: T1, full-length human MICAL1 (human) (UniProt Q8TDZ2)
T1 sequence: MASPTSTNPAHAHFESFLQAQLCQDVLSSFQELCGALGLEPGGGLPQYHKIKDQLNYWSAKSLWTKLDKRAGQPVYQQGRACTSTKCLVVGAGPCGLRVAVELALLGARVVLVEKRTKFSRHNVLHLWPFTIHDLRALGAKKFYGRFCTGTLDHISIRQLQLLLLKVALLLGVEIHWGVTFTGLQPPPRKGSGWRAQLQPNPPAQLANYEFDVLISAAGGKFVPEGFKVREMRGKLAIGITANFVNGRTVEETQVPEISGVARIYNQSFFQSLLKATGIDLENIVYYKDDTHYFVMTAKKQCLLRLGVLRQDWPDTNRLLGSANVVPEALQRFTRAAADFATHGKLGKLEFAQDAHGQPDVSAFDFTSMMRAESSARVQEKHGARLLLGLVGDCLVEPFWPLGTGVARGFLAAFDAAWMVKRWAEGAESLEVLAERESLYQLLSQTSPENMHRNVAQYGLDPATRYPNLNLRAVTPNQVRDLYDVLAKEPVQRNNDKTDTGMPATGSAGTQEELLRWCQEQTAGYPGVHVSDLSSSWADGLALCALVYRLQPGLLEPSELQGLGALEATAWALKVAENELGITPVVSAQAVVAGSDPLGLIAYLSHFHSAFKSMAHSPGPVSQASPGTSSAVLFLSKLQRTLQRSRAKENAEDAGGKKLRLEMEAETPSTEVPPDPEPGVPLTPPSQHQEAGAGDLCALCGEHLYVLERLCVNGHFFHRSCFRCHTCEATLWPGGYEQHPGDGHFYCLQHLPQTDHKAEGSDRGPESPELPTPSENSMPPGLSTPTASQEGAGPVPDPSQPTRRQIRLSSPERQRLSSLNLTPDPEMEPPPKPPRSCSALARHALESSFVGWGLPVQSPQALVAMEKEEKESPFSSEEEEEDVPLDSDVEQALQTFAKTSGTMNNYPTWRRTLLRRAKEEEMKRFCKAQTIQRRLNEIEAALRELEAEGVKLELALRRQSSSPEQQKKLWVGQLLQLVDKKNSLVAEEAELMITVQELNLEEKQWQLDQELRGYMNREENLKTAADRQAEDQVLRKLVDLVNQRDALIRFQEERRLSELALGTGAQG

fold enhancement of NADPH turnover of MICAL1 (0.5 μM) on adding Rab8a (40 μM): 4 fold
Substance: human Rab8a 1-181 with the constitutively active mutation Q67L (from UniProt P61006 1-181) (domain or fragment)
